B1: E. coli C8-ACP (octanoyl-acyl carrier protein), SPR sample (natural protein)
chain: STIEERVKKIIGEQLGVKQEEVTNNASFVEDLGADSLDTVELVMALEEEFDTEIPDEEAEKITTVQAAIDYINGHQA
modifications: octanoyl (C8) chain on a 4'-phosphopantetheine arm (residue not stated)
B2: E. coli holo-ACP (acyl carrier protein with 4'-phosphopantetheine), SPR sample (natural protein)
chain: B1 chain
modifications: 4'-phosphopantetheine arm (residue not stated)
B3: E. coli apo-ACP (unmodified acyl carrier protein), SPR sample (natural protein)
chain: B1 chain

Tests used:
[1] = target: T1, E. coli LipBK135A/C169A (catalytically inactive double mutant of lipoate protein ligase B) (E. coli, UniProt P60720 1-213, K135A | C169A); assay: SPR; LipBK135A/C169A immobilised on an activated gold sensor surface (Autolab ESPRIT), increasing concentrations of ACP passed over; 20 mM sodium phosphate pH 8.0, 100 mM NaCl, 298 K; global fit of five injections, 1:1 Langmuir model; details: both partners purified
[2] = target: T1, E. coli LipBK135A/C169A (catalytically …); assay: SPR; apparent (binding curve did not reach saturation for holo-ACP); LipBK135A/C169A immobilised on an activated gold sensor surface (Autolab ESPRIT), increasing concentrations of ACP passed over; 20 mM sodium phosphate pH 8.0, 100 mM NaCl, 298 K; global fit of five injections, 1:1 Langmuir model; details: both partners purified

Binder	Kd [1] [µM]	Kd [2] [µM]
B1	36.4	–
B2	–	100
B3	–	2100

Source: paper PMC9307952 (The Journal of Biological Chemistry, 2022)
